Residue numbers refer to the chain shown, from its start. Numbers in names are those of the source.
B1: H4H6706P (antibody, human IgG4, V domains shown)
VH: EVQLVESGGGLIKPGGSLRLSCAASGFTFSNAWMSWVRQAPGKGLEWVGRIKRKSDGGTTDYAAPVKGRFTISRDDSKNTMYLQMNSLKTEDTAVYYCTPSGSYYGYWGQGTLVTVSS
VL: not shown
B2: H4H6671P (antibody, human IgG4, V domains shown)
VH: B1 VH with I12V, R53S, K54R, M81L, V95L, T99S, S101P, Y104H
VL: not shown
B3: H4H6669P (antibody, human IgG4, V domains shown)
VH: B1 VH with I12V, S35T, S55N, T60I, M81L, K89R, T99I
VL: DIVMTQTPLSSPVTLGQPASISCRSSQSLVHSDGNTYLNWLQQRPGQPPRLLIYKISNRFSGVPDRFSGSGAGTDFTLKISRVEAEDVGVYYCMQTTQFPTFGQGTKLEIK
B4: H4H6698P (antibody, human IgG4, V domains shown)
VH: EVQLVESGGGLVKPGGSLRLSCAASGFTFSNVWMTWVRQAPGKGLEWVGRIKTKTDGGTTDYAAPVKGRFTISRDDSKNSLYLQMSSLKTEDTAVYYCTTGHTSYWGQGTLVTVSS
VL: not shown
B5: H4H6701P (antibody, human IgG4, V domains shown)
VH: B4 VH with V32A, I51T, D56E, S80T, S86N, T103I, S104F
VL: not shown
B6: H2M6385N (antibody, V domains shown)
VH: EVQVVESGGGLVKPGGSLRLSCAASGFTFSNVWMTWVRQAPGKGLEWVGRIKSKIEGGTTDYAASVKGRFTISRDDSKNTQSLQMNSLKSEDTAVYYCSTGHLAYWGQGTLVIVSS
VL: DIVMTQTPLSSPVSLGQPASISCRSSQSLVHSDGSTYLSWLQQRPGQPPRLLIYKISNRFSGVPDRFSGSGAGTDFTLKISRVEAEDVGIYYCMQATQFPTFGQGTKVEIK
notes: the prefix H2M is not spelled out
B7: H4H6663P (antibody, human IgG4, V domains shown)
VH: EVQLVESGGGLVKPGGSLRLSCAASGFTFSNAWMSWVRQVPGKGLEWVGRIKSKTDGGTTDYAAPVKGRFTISRDDPKNTLYLQMYSLKTEDTAVYYCTTRSMQYWGQGTLVTVSS
VL: B6 VL with S14T, S35Y, S39N
B8: H4H6680P (antibody, human IgG4, V domains shown)
VH: B1 VH with I12V, A24V, S35T, A40T, S55N, D56E, T60I, M81L
VL: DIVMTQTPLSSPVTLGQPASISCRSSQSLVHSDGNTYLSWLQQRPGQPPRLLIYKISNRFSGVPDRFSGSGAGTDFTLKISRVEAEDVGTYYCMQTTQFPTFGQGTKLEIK
B9: H4H6385N (antibody, human IgG4, V domains shown)
VH: B6 VH
VL: B6 VL
notes: Form used in SPR and calcium assays; also called H4HM6385N

These binders were tested against T1, human PROKR2(1-53)-hFc (human) (assay: SPR (Biacore 4000), 25 C, antibody captured).
T1 construct: also called soluble human PROKR2 (N-terminal portion)
Experimental: (§1) Kinetic experiments were carried out using HBS-EP (10 mM HEPES, 150 mM NaCl, 3 mM EDTA, 0.05% Surfactant P20, pH 7.4) as both the running buffer and the sample buffer. Antigen-antibody association rates were measured by injecting 2 concentrations (25 and 100 nM) of both human PROKR1 (1-62)-hFc (SEQ ID NO:179) and human PROKR2(1-53)-hFc (SEQ ID NO:180) over the captured antibody surface. Antibody-antigen association was monitored for 90 seconds while dissociation was monitored for 360 seconds. Kinetic on-rate (kₐ) and off-rate (kd) constants were determined from the data using Scrubber software version 2.0 c. Binding dissociation equilibrium constants (KD) and dissociative half-lives (t 1/2) were calculated from the kinetic rate constants as: KD=kd/kₐ and t 1/2=ln(2)/kd.

Row | Binder | binding result
1 | B1 | no binding (tested: 25 and 100 nM antigen injected)
2 | B2 | no binding (tested: 25 and 100 nM antigen injected)
3 | B3 | no binding (tested: 25 and 100 nM antigen injected)

These binders were tested against T2, mouse PROKR2 (mouse (Mus musculus), UniProt Q8K458 1-381) (assay: flow cytometry, HEK293 cells expressing the target, 13 nM antibody).
T2 construct: whole, on cells; Expressed on engineered HEK293 or CHO cells; also called mPROKR2; CHO/mPROKR2
T2 sequence (Q8K458 whole entry): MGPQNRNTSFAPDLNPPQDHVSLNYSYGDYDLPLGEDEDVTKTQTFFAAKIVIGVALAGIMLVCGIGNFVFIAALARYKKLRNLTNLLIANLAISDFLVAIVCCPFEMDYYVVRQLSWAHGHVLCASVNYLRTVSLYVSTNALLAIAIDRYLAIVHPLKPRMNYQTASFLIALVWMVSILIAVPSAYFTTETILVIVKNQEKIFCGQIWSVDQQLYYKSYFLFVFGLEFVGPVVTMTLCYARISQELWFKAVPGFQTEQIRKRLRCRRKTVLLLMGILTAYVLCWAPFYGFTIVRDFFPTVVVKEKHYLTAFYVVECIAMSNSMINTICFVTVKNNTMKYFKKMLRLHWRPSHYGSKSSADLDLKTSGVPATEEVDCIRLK
Experimental: (§2) Anti-PROKR antibodies generated in accordance with Example 1 were tested for the ability to bind to human, mouse, and monkey PROKR1 and PROKR2. For these experiments, HEK293 cells were engineered to express: human PROKR1; human PROKR2; mouse PROKR1; mouse PROKR2; cynomolgus monkey PROKR1; or cynomolgus monkey PROKR2. Binding of anti-human PROKR antibodies to the PROKR-expressing cell lines was measured by flow cytometry.
(§3) Adherent cells were collected using 1 mM EDTA in PBS, then washed, and re-suspended in cold PBS containing 5% FBS. For the binding experiments, each anti-PROKR antibody was added to 250,000 cells in 500 μl of PBS with 5% FBS (final antibody concentration of 13 nM). After incubation for 20 minutes at room temperature, the cells were washed with PBS containing 5% FBS. A secondary antibody, recognizing either human (Jackson Immuno Research, #115-135-205) or mouse Fc (BD Pharmigen, #550826) and conjugated to allophycyanin, was then added to the cell mixture at a final concentration of 13.3 nM. After incubating for 20 minutes on ice, the cells were washed and resuspended in PBS containing 5% FBS and then sorted and analyzed on a FACSCalibur (BD Biosciences) flow cytometer to determine relative binding by the candidate antibodies. The cell samples containing secondary antibody alone were used as negative control for FACS gating. Histograms of cells stained with anti-human PROKR antibodies were compared with cells stained with secondary alone. […] ND=not determined.

Row | Binder | binding result
4 | B4 | binds
5 | B5 | binds
6 | B6 | binds

The binders below were run against T3, human PROKR2 (human, UniProt Q8NFJ6 1-384) in the same assay as above.
T3 construct: Expressed on engineered HEK293 or CHO cells; also called hPROKR2; prokineticin receptor 2
T3 sequence (Q8NFJ6 whole entry): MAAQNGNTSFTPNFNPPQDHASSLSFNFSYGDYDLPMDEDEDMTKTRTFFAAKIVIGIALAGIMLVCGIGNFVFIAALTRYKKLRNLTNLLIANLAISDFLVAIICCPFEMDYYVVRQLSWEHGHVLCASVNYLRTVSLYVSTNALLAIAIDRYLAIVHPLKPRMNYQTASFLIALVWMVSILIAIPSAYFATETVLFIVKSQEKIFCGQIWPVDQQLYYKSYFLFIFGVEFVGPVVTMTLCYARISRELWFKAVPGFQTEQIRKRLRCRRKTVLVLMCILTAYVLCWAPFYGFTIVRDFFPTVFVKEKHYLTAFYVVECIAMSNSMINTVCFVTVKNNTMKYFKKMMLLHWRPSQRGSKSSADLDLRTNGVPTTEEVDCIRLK
Experimental: as §2, §3

Row | Binder | binding result
7 | B4 | binds
8 | B5 | binds
9 | B6 | binds
10 | B7 | binds

What follows are binders tested against T4, human PROKR1 (1-62)-hFc (human) (assay: SPR (Biacore 4000), 25 C, antibody captured, antigen injected at 25 and 100 nM).
T4 construct: also called soluble human PROKR1 (N-terminal portion)
T4 sequence (chain, as listed by the source limits assumed): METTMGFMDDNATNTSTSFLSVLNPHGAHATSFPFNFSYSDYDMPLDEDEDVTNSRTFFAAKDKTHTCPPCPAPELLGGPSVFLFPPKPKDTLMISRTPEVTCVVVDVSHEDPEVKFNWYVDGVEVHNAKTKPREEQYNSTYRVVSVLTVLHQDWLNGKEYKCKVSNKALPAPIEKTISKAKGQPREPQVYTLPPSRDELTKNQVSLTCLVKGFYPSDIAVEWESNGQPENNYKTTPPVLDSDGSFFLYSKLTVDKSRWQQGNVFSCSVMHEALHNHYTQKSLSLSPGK
Experimental: as §1

Row | Binder | Kd [nM] | koff [s⁻¹] | kon [M⁻¹ s⁻¹] | t½ [min]
11 | B1 | 1.09 | 0.000213 | 196000 | 54
12 | B2 | 1.83 | 0.000362 | 198000 | 32
13 | B3 | 0.264 | 6.23e-05 | 236000 | 186
14 | B8 | 0.197 | 4.55e-05 | 231000 | 254
15 | B4 | 1.12 | 0.000287 | 255000 | 40
16 | B5 | 1.07 | 0.000412 | 385000 | 28
17 | B9 | 0.461 | 0.000136 | 294000 | 85
18 | B7 | 10.6 | 0.0062 | 583000 | 2

What follows are binders tested against T1, human PROKR2(1-53)-hFc in the same assay as above.
Experimental: as §1

Row | Binder | Kd [nM] | koff [s⁻¹] | kon [M⁻¹ s⁻¹] | t½ [min]
19 | B8 | 4.23 | 0.000253 | 59900 | 46
20 | B4 | 16.1 | 0.00857 | 533000 | 1
21 | B5 | 2.41 | 0.00215 | 891000 | 5
22 | B9 | 11 | 0.00539 | 489000 | 2
23 | B7 | 129 | 0.0134 | 104000 | 1

The binders below were run against T5, cynomolgus monkey PROKR1 (cynomolgus monkey (Macaca fascicularis), UniProt G7PMD0 1-393) (assay: flow cytometry, HEK293 cells expressing the target).
T5 construct: whole, on cells; Expressed on engineered HEK293 cells; also called MfPROKR1; 293/mfPROKR1
T5 sequence (G7PMD0 entry or part of it): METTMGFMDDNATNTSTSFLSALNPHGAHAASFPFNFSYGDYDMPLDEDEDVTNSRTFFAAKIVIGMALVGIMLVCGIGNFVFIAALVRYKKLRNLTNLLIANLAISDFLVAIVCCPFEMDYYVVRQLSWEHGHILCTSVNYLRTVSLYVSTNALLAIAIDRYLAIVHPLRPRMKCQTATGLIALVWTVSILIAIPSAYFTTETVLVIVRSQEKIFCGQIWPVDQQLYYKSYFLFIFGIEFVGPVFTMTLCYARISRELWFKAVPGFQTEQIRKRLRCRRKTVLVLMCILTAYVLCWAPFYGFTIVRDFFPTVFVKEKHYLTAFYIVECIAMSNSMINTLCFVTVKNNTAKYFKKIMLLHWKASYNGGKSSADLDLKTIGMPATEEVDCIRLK
Experimental: as §2, §3

Row | Binder | binding result
24 | B6 | no binding

The binders below were run against T6, mouse PROKR1 (mouse (Mus musculus), UniProt Q9JKL1 1-393) (assay: flow cytometry, HEK293 cells expressing the target).
T6 construct: whole, on cells; Expressed on engineered HEK293 or CHO cells; also called mPROKR1; 293/mPROKR1
T6 sequence (Q9JKL1 whole entry): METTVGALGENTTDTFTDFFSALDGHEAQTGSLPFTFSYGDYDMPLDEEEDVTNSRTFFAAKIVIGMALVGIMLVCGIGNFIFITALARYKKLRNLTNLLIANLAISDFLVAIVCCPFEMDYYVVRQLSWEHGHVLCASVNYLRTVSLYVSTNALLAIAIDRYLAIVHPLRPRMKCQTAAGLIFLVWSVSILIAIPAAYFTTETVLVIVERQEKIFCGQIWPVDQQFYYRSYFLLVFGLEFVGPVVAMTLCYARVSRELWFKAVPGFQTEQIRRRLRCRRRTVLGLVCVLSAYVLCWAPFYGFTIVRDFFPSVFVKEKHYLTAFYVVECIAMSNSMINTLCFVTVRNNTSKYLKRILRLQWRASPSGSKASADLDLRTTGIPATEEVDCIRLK
Experimental: as §2, §3

Row | Binder | binding result
25 | B6 | no binding

What follows are binders tested against T3, human PROKR2 (assay: flow cytometry, HEK293 cells expressing the target).
Experimental: as §2, §3

Row | Binder | binding result
26 | B1 | no binding
27 | B2 | no binding
28 | B3 | no binding

These binders were tested against T7, human PROKR1 (human, UniProt Q8TCW9 1-393) (assay: cell-based or functional assay).
T7 sequence (Q8TCW9 whole entry): as the sequence (G7PMD0 entry or part of it) above, with A22V, A31T, G40S, V82I, I135V, R210K, F246V, N348D, A350V counted along it

Row | Binder | IC50 (nM), blocking of hPK1 induced calcium flux, CHO/hPROKR1 non-induced (40 nM hPK1) [nM] | IC50 (nM), blocking of hPK2 induced calcium flux, CHO/hPROKR1 non-induced (4 nM hPK2) [nM] | IC50 (nM), blocking of hPK1 induced calcium flux, CHO/hPROKR1 non-induced (40 or 80 nM hPK1, average) [nM]
29 | B4 | 3.1 | 27.4 | 
30 | B5 | 4.1 | 21.9 | 
31 | B9 |  | 20 | 14.2

Biological target: T7, human PROKR1
Assay: cell-based or functional assay
Remark: another data set of the same source

Row | Binder | Block (%), calcium flux, hPROKR1 + PK1 (20 nM hPK1) [%] | IC50 (nM), inhibition of calcium flux, hPROKR1 + PK1 (20 nM hPK1) [nM] | Block (%), calcium flux, hPROKR1 + PK1 (1 nM hPK1) [%] | Block (%), calcium flux, hPROKR1 + PK2 (1 nM hPK2) [%] | IC50 (nM), inhibition of calcium flux, hPROKR1 + PK1 (1 nM hPK1) [nM] | IC50 (nM), inhibition of calcium flux, hPROKR1 + PK2 (1 nM hPK2) [nM]
32 | B1 | 59.1 | 11.2 |  |  |  | 
33 | B2 | 45 | 14.5 |  |  |  | 
34 | B3 | 52.4 | 14 |  |  |  | 
35 | B8 | 51 | 16.4 |  |  |  | 
36 | B4 |  |  | 101 | 40 | 8.5 | > 300
37 | B5 |  |  | 98.5 | 56.6 | 6.6 | > 300
38 | B9 |  |  | 101 | 77.5 | 6.3 | 55.1
39 | B7 | 15.5 | > 1000 |  |  |  | 

These binders were tested against rat PROKR1 (rat (Rattus norvegicus), UniProt Q8R416 1-393) (assay: cell-based or functional assay).
Chain of rat PROKR1 (Q8R416 whole entry): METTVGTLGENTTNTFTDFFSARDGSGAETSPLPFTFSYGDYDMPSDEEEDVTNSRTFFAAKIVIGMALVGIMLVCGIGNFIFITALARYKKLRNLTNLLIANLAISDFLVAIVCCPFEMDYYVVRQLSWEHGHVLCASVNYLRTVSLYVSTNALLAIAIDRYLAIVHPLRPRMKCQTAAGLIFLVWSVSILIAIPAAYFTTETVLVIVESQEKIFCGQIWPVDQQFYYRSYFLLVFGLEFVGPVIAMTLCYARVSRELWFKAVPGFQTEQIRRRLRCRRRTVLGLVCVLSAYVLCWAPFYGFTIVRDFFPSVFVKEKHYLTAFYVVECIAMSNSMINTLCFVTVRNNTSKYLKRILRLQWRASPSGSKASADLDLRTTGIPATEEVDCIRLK

Row | Binder | Block (%), calcium flux, rPROKR1 + PK1 (1 nM hPK1) [%]
40 | B4 | 0
41 | B5 | 0
42 | B9 | 0

What follows are binders tested against T6, mouse PROKR1 (assay: cell-based or functional assay).

Row | Binder | Block (%), calcium flux, mPROKR1 + PK1 (1 nM hPK1) [%] | IC50 (nM), inhibition of calcium flux, mPROKR1 + PK1 (1 nM hPK1) [nM]
43 | B2 | 0 | 
44 | B3 | 0 | 
45 | B8 | 0 | 
46 | B4 | 0 | 
47 | B5 | 20.9 | > 300
48 | B9 | 0 | 

What follows are binders tested against T5, cynomolgus monkey PROKR1 (assay: cell-based or functional assay).

Row | Binder | Block (%), calcium flux, MfPROKR1 + PK1 (5 nM hPK1) [%] | Block (%), calcium flux, MfPROKR1 + PK2 (0.5 nM hPK2) [%] | IC50 (nM), inhibition of calcium flux, MfPROKR1 + PK1 (5 nM hPK1) [nM] | IC50 (nM), inhibition of calcium flux, MfPROKR1 + PK2 (0.5 nM hPK2) [nM]
49 | B4 | 99.3 | 85.7 | 32.9 | 63.9
50 | B5 | 101 | 50.5 | 6.4 | > 300
51 | B9 | 101 | 93.7 | 6.7 | 51.8
